± gives the uncertainty stated by the source.
Experiment: self-splicing fitness, log relative to wild type (ln ratio); higher = more splicing; Tetrahymena group I intron in knt gene, E. coli kanamycin selection, DiMSum; sequences stand for … in CUCUCU…GGAGGGAAAAGUUAUCAGGCAUGCACCUGGUAGCUAGUCUUUAAACCAAUAGAUUGCAUCGGUUUAAAAGGCAAGACCGUCAAAUUGCGGGAAAGGGGUCAACAGCCGUUCAGUACCAAGUCUCAGGGGAAACUUUGAGAUGGCCUUGCAAAGGGUAUGGUAAUAAGCUGACGGACAUGGUCCUAACCACGCAGCCAAGUCCUAAGUCAACAGAUCUUCUGUUGAUAUGGAUGCAGUUCACAGACUAAAUGUCGGUCGGGGAAGAUGUAUUCUUCUCAUAAGAUAUAGUCGGACCUCUCCUUAAUGGGAGCUAGCGGAUGAAGUGAUGCAACACUGGAGCCGCUGGGAACUAAUUUGUAUGCGAAAGUAUAUUGAUUAGUUUUGGAGUACUCGUGGUCG
Procedure, shortened: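 Library with all eight P1ex-region intron nucleotides randomised, intron inside the knt kanamycin-resistance gene on pET-22b(+), in E. coli BL21(DE3). Cells grew overnight at 37°C or 30°C on LB agar with or without 25 μg/mL kanamycin (plus 100 μg/mL carbenicillin, 50 μM IPTG, 0.2% rhamnose), in six replicate transformations. Pooled colonies were amplicon-sequenced on Illumina HiSeq 2500. DiMSum fitness is the error-weighted combination of wild-type-normalised replicate fold changes, kanamycin versus none.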

Row | Sequence | self-splicing fitness (ln) (30 °C) | self-splicing fitness (ln) (37 °C)
1 | GAUCAGCAAUAUUACGAUCU | -4.13 ± 0.42 | -1.8 ± 0.26
2 | GAUCAGCAAUAUUACGCAAU | -1.56 ± 0.1 | 0.129 ± 0.11
3 | GAUCAGCAAUAUUACGCAUG | -0.141 ± 0.095 | 0.865 ± 0.14
4 | GAUCAGCAAUAUUACGCCCU | -0.299 ± 0.069 | 0.418 ± 0.084
5 | GAUCAGCAAUAUUACGCCUC | -1.36 ± 0.18 | -0.876 ± 0.23
6 | GAUCAGCAAUAUUACGCUGA | -3.83 ± 0.37 | -1.33 ± 0.21
7 | GAUCAGCAAUAUUACGCUUG | -1.02 ± 0.095 | 0.188 ± 0.12
8 | GAUCAGCAAUAUUACGCUUU | -1.02 ± 0.08 | -0.877 ± 0.11
9 | GAUCAGCAAUAUUACGGAUU | -3.32 ± 0.24 | -2.52 ± 0.24
10 | GAUCAGCAAUAUUACGGCGG | -2.43 ± 0.13 | -2.06 ± 0.17
11 | GAUCAGCAAUAUUACGGGCA | -0.237 ± 0.098 | -0.574 ± 0.11
12 | GAUCAGCAAUAUUACGGUCC | -3.7 ± 0.33 | –
13 | GAUCAGCAAUAUUACGGUGA | -0.622 ± 0.069 | -0.422 ± 0.075
14 | GAUCAGCAAUAUUACGGUUA | -0.25 ± 0.066 | 0.171 ± 0.067
15 | GAUCAGCAAUAUUACGUCAA | -1.01 ± 0.1 | -0.615 ± 0.14
16 | GAUCAGCAAUAUUACGUCAG | -4.35 ± 0.43 | -2.43 ± 0.28
17 | GAUCAGCAAUAUUACGUGCC | -1.16 ± 0.13 | -0.652 ± 0.24
18 | GAUGAGCAAUAUUACGACGA | -1.5 ± 0.13 | -1.3 ± 0.15
19 | GAUGAGCAAUAUUACGAGCG | -2.62 ± 0.44 | –
20 | GAUGAGCAAUAUUACGAUGU | -2.63 ± 0.25 | -2.15 ± 0.35
21 | GAUGAGCAAUAUUACGAUUU | -1.07 ± 0.14 | -2.1 ± 0.18
22 | GAUGAGCAAUAUUACGCUCG | -3.02 ± 0.3 | -2.75 ± 0.38
23 | GAUGAGCAAUAUUACGCUUC | -4.04 ± 0.43 | –
24 | GAUGAGCAAUAUUACGGAAU | -3.1 ± 0.23 | -2.66 ± 0.41
25 | GAUGAGCAAUAUUACGGACA | -2.22 ± 0.45 | -3.08 ± 0.47

Row | Sequence | self-splicing fitness (ln) (30 °C) | self-splicing fitness (ln) (37 °C)
26 | GAUGAGCAAUAUUACGGAUA | -3.94 ± 0.42 | -2.52 ± 0.26
27 | GAUGAGCAAUAUUACGGCCA | -2.11 ± 0.44 | -0.871 ± 0.24
28 | GAUGAGCAAUAUUACGGCGC | -0.349 ± 0.17 | 0.649 ± 0.25
29 | GAUGAGCAAUAUUACGGGAU | – | -2.36 ± 0.42
30 | GAUGAGCAAUAUUACGGUCG | -2.37 ± 0.12 | -0.405 ± 0.12
31 | GAUGAGCAAUAUUACGGUCU | -3.87 ± 0.37 | -3.34 ± 0.26
32 | GAUGAGCAAUAUUACGUAGG | -3.76 ± 0.27 | -1.79 ± 0.26
33 | GAUGAGCAAUAUUACGUCUC | -2.96 ± 0.23 | -1.5 ± 0.41
34 | GAUGAGCAAUAUUACGUCUU | -1.41 ± 0.12 | -0.691 ± 0.12
35 | GAUGAGCAAUAUUACGUGAU | -3.66 ± 0.28 | -2.3 ± 0.24
36 | GAUUAGCAAUAUUACGAAAU | -2.4 ± 0.22 | 1.2 ± 0.2
37 | GAUUAGCAAUAUUACGACCU | -0.343 ± 0.13 | -0.777 ± 0.18
38 | GAUUAGCAAUAUUACGAGAG | -3.5 ± 0.25 | -1.83 ± 0.18
39 | GAUUAGCAAUAUUACGAGGU | -3.27 ± 0.18 | -3.89 ± 0.33
40 | GAUUAGCAAUAUUACGAUCA | -0.826 ± 0.21 | -0.493 ± 0.19
41 | GAUUAGCAAUAUUACGCAAC | -3.22 ± 0.26 | -1.89 ± 0.19
42 | GAUUAGCAAUAUUACGCAGC | -2.35 ± 0.31 | –
43 | GAUUAGCAAUAUUACGCAUG | -0.728 ± 0.14 | -0.334 ± 0.17
44 | GAUUAGCAAUAUUACGCGAC | -3.24 ± 0.31 | -2.32 ± 0.23
45 | GAUUAGCAAUAUUACGCGCU | – | -1.92 ± 0.4
46 | GAUUAGCAAUAUUACGCUUG | -0.829 ± 0.079 | -0.445 ± 0.093
47 | GAUUAGCAAUAUUACGGAAC | -2.84 ± 0.36 | -1.7 ± 0.33
48 | GAUUAGCAAUAUUACGGACG | -0.885 ± 0.19 | 0.241 ± 0.16
49 | GAUUAGCAAUAUUACGGCAA | -0.324 ± 0.15 | -0.0501 ± 0.18
50 | GAUUAGCAAUAUUACGGCGC | 0.24 ± 0.072 | 0.233 ± 0.084

Row | Sequence | self-splicing fitness (ln) (30 °C) | self-splicing fitness (ln) (37 °C)
51 | GAUUAGCAAUAUUACGGCUA | -0.867 ± 0.099 | -0.414 ± 0.1
52 | GAUUAGCAAUAUUACGGGCU | -2.8 ± 0.15 | -1.28 ± 0.12
53 | GAUUAGCAAUAUUACGGUGA | -1.31 ± 0.11 | -1.24 ± 0.098
54 | GAUUAGCAAUAUUACGGUUA | -0.842 ± 0.14 | 0.0704 ± 0.15
55 | GAUUAGCAAUAUUACGUAAC | -1.94 ± 0.17 | 0.224 ± 0.14
56 | GAUUAGCAAUAUUACGUACC | -1.71 ± 0.22 | 0.563 ± 0.21
57 | GAUUAGCAAUAUUACGUCUG | -2.47 ± 0.23 | -1.19 ± 0.16
58 | GAUUAGCAAUAUUACGUGAA | -3.07 ± 0.17 | -1.48 ± 0.14
59 | GAUUAGCAAUAUUACGUGUA | -2.22 ± 0.13 | -1.63 ± 0.14
60 | GAUUAGCAAUAUUACGUUAG | -2.09 ± 0.32 | -2.4 ± 0.45
61 | GAUUAGCAAUAUUACGUUGG | -4.17 ± 0.27 | -2.16 ± 0.18
62 | GAUUAGCAAUAUUACGUUUU | -3.88 ± 0.28 | -1.59 ± 0.16
63 | GCAAAGCAAUAUUACGAACG | -1.46 ± 0.077 | -0.561 ± 0.11
64 | GCAAAGCAAUAUUACGAAUG | -3.4 ± 0.15 | -1.77 ± 0.12
65 | GCAAAGCAAUAUUACGACAC | -0.783 ± 0.099 | -0.461 ± 0.13
66 | GCAAAGCAAUAUUACGAGGA | -2.49 ± 0.13 | -1.83 ± 0.14
67 | GCAAAGCAAUAUUACGAUGU | -2.89 ± 0.15 | -1.93 ± 0.17
68 | GCAAAGCAAUAUUACGCCAG | -2.38 ± 0.15 | -3.19 ± 0.29
69 | GCAAAGCAAUAUUACGCCUC | -2.69 ± 0.12 | -1.86 ± 0.16
70 | GCAAAGCAAUAUUACGCGCA | -0.918 ± 0.096 | -0.0967 ± 0.092
71 | GCAAAGCAAUAUUACGGAAC | -1.63 ± 0.18 | -0.635 ± 0.17
72 | GCAAAGCAAUAUUACGGCGA | -0.683 ± 0.067 | -0.115 ± 0.084
73 | GCAAAGCAAUAUUACGGGAU | -1.93 ± 0.067 | -0.98 ± 0.097
74 | GCAAAGCAAUAUUACGGGGC | -4.05 ± 0.34 | -3.13 ± 0.31
75 | GCAAAGCAAUAUUACGGGUG | -1.23 ± 0.047 | -1.23 ± 0.057

Row | Sequence | self-splicing fitness (ln) (30 °C) | self-splicing fitness (ln) (37 °C)
76 | GCAAAGCAAUAUUACGGUCA | -1.12 ± 0.083 | -0.197 ± 0.087
77 | GCAAAGCAAUAUUACGUACA | -1.31 ± 0.11 | -0.858 ± 0.13
78 | GCAAAGCAAUAUUACGUGAG | -1.11 ± 0.046 | -0.539 ± 0.067
79 | GCAAAGCAAUAUUACGUUAG | -3.02 ± 0.13 | -1.82 ± 0.14
80 | GCACAGCAAUAUUACGAAAA | -1.7 ± 0.1 | -1.09 ± 0.12
81 | GCACAGCAAUAUUACGAAUG | -1.89 ± 0.051 | -1.09 ± 0.063
82 | GCACAGCAAUAUUACGACAG | -2.97 ± 0.25 | -1.8 ± 0.23
83 | GCACAGCAAUAUUACGACAU | -0.894 ± 0.011 | -0.217 ± 0.032
84 | GCACAGCAAUAUUACGACCC | 0.615 ± 0.18 | 0.472 ± 0.25
85 | GCACAGCAAUAUUACGAGCU | -2.63 ± 0.11 | -1.07 ± 0.1
86 | GCACAGCAAUAUUACGAUAU | -0.993 ± 0.056 | -0.54 ± 0.071
87 | GCACAGCAAUAUUACGCAAC | -2.31 ± 0.17 | -1.03 ± 0.19
88 | GCACAGCAAUAUUACGCAAU | -1.14 ± 0.1 | -0.864 ± 0.087
89 | GCACAGCAAUAUUACGCCCA | -1.72 ± 0.27 | -0.754 ± 0.24
90 | GCACAGCAAUAUUACGCCGU | -1.51 ± 0.1 | 0.145 ± 0.14
91 | GCACAGCAAUAUUACGCCUC | -0.836 ± 0.065 | -0.337 ± 0.074
92 | GCACAGCAAUAUUACGCGAG | -2.41 ± 0.092 | -0.669 ± 0.084
93 | GCACAGCAAUAUUACGCUUA | -0.908 ± 0.065 | -0.871 ± 0.062
94 | GCACAGCAAUAUUACGGAUC | -0.505 ± 0.053 | -0.336 ± 0.061
95 | GCACAGCAAUAUUACGGCAU | -1.59 ± 0.095 | -0.16 ± 0.091
96 | GCACAGCAAUAUUACGGCGA | -1.16 ± 0.083 | -0.758 ± 0.095
97 | GCACAGCAAUAUUACGGCGG | -3.29 ± 0.19 | -2.78 ± 0.25

— the supplement of paper PMC7877785
